From article PMC4634812, “Characterization of proliferating cell nuclear antigen (PCNA) from pathogenic yeast Candida albicans and its functional analyses in S. Cerevisiae” (BMC Microbiology, 2015) come the findings set out here.

Series [1] deals with Candida albicans PCNA G178S mutant (Candida albicans SC5314) (UniProt Q5AMN0). Put plainly: cross-linking; about 20 μg protein in 20 mM HEPES pH 7.5 with glutaraldehyde, 5 min at 37 °C, then 12 % SDS-PAGE.
Series [2] concerns the molecule itself. Put plainly: native gel or EMSA; 12 % non-denaturing polyacrylamide gel, ~1 μg of each purified protein, Coomassie stain. On the technique in general: Mobility shift assays separate free from complexed probe on a gel.
Series [3] deals with the molecule itself. Put plainly: cross-linking; about 20 μg protein in 20 mM HEPES pH 7.5 with glutaraldehyde, 5 min at 37 °C, then 12 % SDS-PAGE.
Series [4] concerns the target T1, Yeast DNA polymerase eta (ScPolη) (S. cerevisiae, UniProt Q04049 1-632).
T1 construct: DNA polymerase eta (Rad30) of S. cerevisiae; also called Rad30; ScRAD30; source: S. cerevisiae YRP654 (protease deficient), GAL-PGK-GST-ScRAD30 construct, purified by the same protocol as PCNA
T1 sequence (looked up): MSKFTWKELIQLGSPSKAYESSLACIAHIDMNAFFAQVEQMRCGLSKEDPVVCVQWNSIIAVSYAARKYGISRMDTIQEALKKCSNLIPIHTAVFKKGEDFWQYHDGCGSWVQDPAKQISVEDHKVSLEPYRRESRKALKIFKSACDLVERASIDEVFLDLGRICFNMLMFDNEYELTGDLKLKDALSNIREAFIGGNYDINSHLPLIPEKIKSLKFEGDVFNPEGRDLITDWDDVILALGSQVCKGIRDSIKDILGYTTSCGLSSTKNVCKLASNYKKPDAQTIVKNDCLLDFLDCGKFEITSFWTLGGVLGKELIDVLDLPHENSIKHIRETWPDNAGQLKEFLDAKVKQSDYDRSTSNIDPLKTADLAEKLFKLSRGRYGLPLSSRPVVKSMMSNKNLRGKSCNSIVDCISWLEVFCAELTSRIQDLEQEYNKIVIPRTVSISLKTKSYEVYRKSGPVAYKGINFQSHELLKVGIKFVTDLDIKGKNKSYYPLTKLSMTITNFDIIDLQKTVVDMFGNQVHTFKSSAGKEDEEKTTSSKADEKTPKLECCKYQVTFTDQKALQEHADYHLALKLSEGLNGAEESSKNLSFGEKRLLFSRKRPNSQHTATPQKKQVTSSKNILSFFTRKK
The series can be described thus: SPR. The note with it: both partners purified.

In series [5] the target is T1, Yeast DNA polymerase eta (ScPolη). Put plainly: SPR; Bio-Rad XPR 36; CaPCNA, ScPCNA or BSA (~350 RU) amine-coupled on a GLC chip; ScPolη injected at 25-500nM; 25 mM HEPES pH 7.5, 10 % glycerol, 200 mM sodium acetate, 8 mM magnesium acetate, 1 mM DTT, 0.005 % Tween-20, 0.2 mg/ml BSA; 20 °C; 1:1 Langmuir fit. Particulars: both partners purified. A general note: SPR reads the build-up and loss of mass on a sensor chip optically.

As for “Candida albicans PCNA G178S mutant (from UniProt Q5AMN0 1-259) (natural protein)”, the stoichiometry N – broadly, a count of units in the complex or per binding partner – in series [1] was determined as 2.

B1: Candida albicans proliferating cell nuclear antigen (CaPCNA), wild type (natural protein, Candida albicans SC5314, UniProt Q5AMN0 1-259, looked up)
chain: MLEGKFEEAALLKKVVEAIKDCVKKCNFNCSEHGITVQAVDDSRVLLVSLLIGQTSFSEYRCDRDVTLGIDLESFSKIIKSANNEDFLTLLAEDSPDQIMAILEEKQKEKISEYSLKLMDIDSEFLQIDDMEYDAVVNMPSSDFAKLVRDLKNLSESLRVVVTKDSVKFTSEGDSGSGSVILKPYTNLKNERESVTISLDDPVDLTFGLKYLNDIVKAATLSDVITIKLADKTPALFEFKMQSGGYLRFYLAPKFDDDE
notes: PCNA (POL30) of Candida albicans SC5314, orf19.4616 of the Candida Genome Database, 259 amino acids; the orf was amplified from genomic DNA with primers from the start to the stop codon; A few residues of the Prescission site and the cloning site may remain at the N-terminus after cleavage; also called orf19.4616; CaO19.12086; source: E. coli BL21-DE3, purified (glutathione beads, eluted by …)
Regarding B1, the “stoichiometry N” value in series [2] turned out to be 3. Besides, the “stoichiometry N” value in series [3] worked out at 6. Also, in series [4], the Kd (commonly the equilibrium constant for the complex coming apart) was 10.6 nM and the koff (in general, the rate constant with which the complex falls apart) came out at 0.000166 s⁻¹.

B2: Saccharomyces cerevisiae PCNA (ScPCNA), wild type (natural protein, S. cerevisiae)
chain: MLEAKFEEASLFKRIIDGFKDCVQLVNFQCKEDGIIAQAVDDSRVLLVSLEIGVEAFQEYRCDHPVTLGMDLTSLSKILRCGNNTDTLTLIADNTPDSIILLFEDTKKDRIAEYSLKLMDIDADFLKIEELQYDSTLSLPSSEFSKIVRDLSQLSDSINIMITKETIKFVADGDIGSGSVIIKPFVDMEHPETSIKLEMDQPVDLTFGAKYLLDIIKGSSLSDRVGIRLSSEAPALFQFDLKSGFLQFFLAPKFNDEE
notes: PCNA (POL30) of S. cerevisiae; The cloning of the bacterial ScPCNA construct is not described; also called yeast PCNA; ScPol30; source: E. coli BL21-DE3, purified (glutathione beads, eluted by Prescission protease)
B2: in series [5], the Kd was 80.1 nM and the koff amounted to 0.00138 s⁻¹. Besides, in series [2], the “stoichiometry N” value is 3.
